From publication PMC3954636

Target: hemagglutinin (HA) of human H7N9 influenza A virus A/Shanghai/2/2013 (influenza A virus A/Shanghai/2/2013 (H7N9))
Assay: crystal structure

## hemagglutinin (HA) of human H7N9 influenza A virus A/Shanghai/2/2013 (natural protein)
  stoichiometry N: 3
